Assay results reported in PMC5857711.

Molecular target: serotonin receptor 1b (5-HT1b), CFP- or YFP-tagged, for FRET (human) (UniProt P28222)
Sequence of UniProt P28222 (P28222 whole entry): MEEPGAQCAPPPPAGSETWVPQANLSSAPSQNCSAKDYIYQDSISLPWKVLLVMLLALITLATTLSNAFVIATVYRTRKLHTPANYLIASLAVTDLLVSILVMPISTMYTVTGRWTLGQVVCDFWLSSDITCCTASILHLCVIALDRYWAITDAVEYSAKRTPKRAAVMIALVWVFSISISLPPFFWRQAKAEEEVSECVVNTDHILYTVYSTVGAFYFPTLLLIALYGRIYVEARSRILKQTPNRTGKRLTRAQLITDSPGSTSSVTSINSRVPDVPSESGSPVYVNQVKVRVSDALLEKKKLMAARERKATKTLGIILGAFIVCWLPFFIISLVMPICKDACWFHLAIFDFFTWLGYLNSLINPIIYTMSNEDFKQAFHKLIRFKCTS

“βTAAR1 (TAAR1 with the first nine amino acids of the β2-adrenoreceptor at its N-terminus), CFP- or YFP-tagged, for FRET (from UniProt P07550 1-9)” gave a Gi/o signaling: reduction of forskolin-induced cAMP (AlphaScreen) by 10 μM 5-HT in HEK293 co-expressing TAAR1 and 5-HT1b (50% for 5-HT1b alone) of 40%.
